Experiment: yeast display, Sf9 membrane polyspecificity reagent, FACS + sequencing; frameworks hold sequencing errors
How it was run: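 Nanobodies from a synthetic yeast display library (Saccharomyces cerevisiae BJ5465), induced 36–48 hours with galactose, were stained 1 hour at 4 °C with 10% biotinylated, detergent-solubilized Sf9 membrane reagent, enriched on streptavidin microbeads, then FACS-sorted. Anti-HA (expression) and streptavidin (reagent binding) fluorescence set low and high (top ~1%) gates. Polyreactivity labels come from the gate of origin. Genes were colony-PCR amplified, MiSeq 2 × 250 sequenced and filtered by CDR length.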

Sequence	polyreactivity (PSR sort gate)
QVQLVESGGGLDQAGGSLRLSCAASGRIFYQNAMGLSRQAPGKERELVAAITSSGVSTYYADSVKGRFTISRDNAKNTVYLQMNSLKPEDTAVYYCAAYRVGYGGYSYYYWGQGTQVTVSS	high polyreactivity
QVQLQESGGGLVQAVCSRRLSCAASGSFSSRDAMGWYRQAPGTEREFVATIAVGGNTNYADSAKGRFTISRDNAKITVYLQMNSPKPEDTAVYYRAAVIDFDIFTYWGQGTQVTVRS	high polyreactivity
QVQLVESVGGLVQAGGSLRLTCAASGIIFAWYVMGWYRQAPGKERELVAAITQSGGSTFYADSVKGRFTISRDNAKNTVYLQMNSLKPEDTAVYYCNTEDFVNVPEMDSWGQGTQVTVSS	low polyreactivity
QVQLVESGGGLVQAGGSRRLSCAASGSTVYTNAMGWSRQAPGKVRELVAAISGSGGSTYYADSVKGRFTISRDNPKNTVYLQMNSLKPEDTAVYYCAARSRNYDTRFDYWGQGTQVTVSS	low polyreactivity
QVQLVESGGGLVQAGGSLRLSCAASGSIFDTYAMGWYRQAPGKERELVAAISSGGRTYYADSVKGRFSISRDNAKNTVYLQMNSLKPEDTAVYYCAVRPRPGYYYWGQGTQVSVSS	high polyreactivity
QVQLVESGGGLVQAGGSLRLSCAASGRIFSSYAMGWSRPAPGKERELVAAISSSGGNTYYADSVKGRFTISRDNAKNTVYLQMNSLKPEDTAVYYCNTRWVHRDWYDYWGQGTQVTVSS	high polyreactivity
QVQLVESGGGLVQAGGSLRLSCAASGRTFGYNALGWYRQAPGKERELVAAITRGGITHYADSVKGRFTISRDNAKNTVYIQKNSLKPEDTAGYYCAKRGPYYTDDEYYWGQGTQVTVSS	low polyreactivity
QVQLVDSGGGLVQAGGSLRLSCAASGSTFDAYAMGWYRQAPGKERELVAGISSGGSYEYAESVKGRFTISRDNAKNTVYVQMNSLKPEDTAVYYCAADSRQSDYYYQPTKFDYWGQGTQVTVSS	low polyreactivity
QVQLVESGGGLVQAGGSLSLICAASGGIIRYKAMGWYRQAPGKERELVAAISSGGNTNYADSVKGRFTISRDNAKNTVNLQMNSLKPEDTAVYYSAKAAPWRVYYHKAYGYDYWGQGPQVTVSS	high polyreactivity
QVQLVESGGGLVQAGGSLRLSCAASGRIFPTNAMGWYRQAPGKERELVASIDSGGSTKYADSVKGRFTISRDNAKNTVDLQMNSLKPEDTTVYYRALQVLNYDYWGQGTQVTVSS	low polyreactivity
QVQLVESGGGLVQAGGSLRLSCAASGFIFNYYVMGGYRQAPGKERELVATISWRGGRTYYADSVKGRFTISRDNAKNTVYLQMNSLKPEDTAVYYCAADSFYYRPEYDYWGQGTQVTVSS	low polyreactivity
QDQLVESGGGLVQAGGSLRLSCAASGRIFPYYAMGWYRQAPGTERELVAAINSGGSTYYADSVKGRFPISRDNAKNTVYLQMNSLKPEDTAVNYCNADVLYEDGFFWDDYWGQGTQVTVSS	low polyreactivity
QVQLVESGGGLVQAGGSLRLSCAASGSIFGFNAMGWYRQAPGKERELVAAISSGSTYYADSVKGRFTISRDNAKNTVYLQKNSLKPEDTAVYYCAATTGYSWYGYWGQGPQVTVSS	low polyreactivity
QVQLVESGGGLVQAGGSLRLSCAASGSTFTANAMGWYRQAPGKERELVAAITNSDGSTYYADSVKGRFTISRDNAKNTVYLQMNSLKPEETAVYYCAKDYYACYWEMDYWGLGTQVTVSS	low polyreactivity
QDQLVESCGGLVQAGGSLRLSCAASGRTFYRYAMGWYIQAPGKERELVADITRRVGITHYADSVKGRFTISRDYAKNTVYLKMNSLKPEDTAVYYCAARKYGSRYRLKYDYWGQGTQVTVSS	high polyreactivity
QVQLVESAGGLDQAGGSLRLSCAASGFTFSVYVMGWYRQAPGKERELVASISKRGGSTTYADSVKGRFTISRDNAKNTVYLQMNSLKPEDTAVYYCAALGPGYYWGQGTQVTVSS	high polyreactivity
QVQLVESGGGLVQAGGSLRLRCAASGRTFLTNTLGWYRQAPGKERELVAAISSGGSTKYADSVKGRFTISRDNAKNTVYLQMNSLKTEDTAVYYCAATGWRYGYKYYYWGQGTQVTVSS	high polyreactivity
QVQLQGSGGGLVQAGGSLRQSCAASGYIFQNVPMGWNRQAPGKERELVAGIDNGTSTNYADSVNGRFTISRDNAKNTVYLQMNSLKPEDTAVYYCAAAGQADDTLGYWGQGTQVTVSS	low polyreactivity
QVQLVESGGGLVQAGGSLRLSCAASAAIFTKNAMGWYRQAPAKERELVAAITGSGASTYYADSVKGRFTISRDNAKNTVYLQMNSLKPEDTAVYYCNTDSPYGWEGEFDYWGQGTQVTVSS	high polyreactivity
QVQLVESGGGLVQAGGSLRLSCAASGFTFTRYAMGWYRPAPGKERELVAAISSRGGSTNYADSVKGRFTISRDNAKNTVYLQMNSLKPEDTAVYYCAAVYYRLRYEYDYWGQGTQVTVSS	high polyreactivity
QVQLVESGGGLVQAGGSLRLSCAASGSIFYYYAMGWYRQAPGKERELVASISSSGSTNYADSVKGRFTISRDNAKNTVYLLMKRLKPEDTAVYYCYADLSLGSYYSYYAYNSWGQGTQVTVSS	low polyreactivity
QVQLVESGGGLVQAGGSLRLSCAASGIIFRGYAMRWYRQAPGKVREVVAVITSGGGTYYADSVKGRFTISRDNAKNNVYLQMNSLKPEETAVYYCNAASSLPGYDYWGQGTQVTVSS	high polyreactivity

Sequence	polyreactivity (PSR sort gate)
QVQLVKSGGGLVQAGGSLRLSCAASGSTFYNDMGGYIHSPGKEIELVAAISIGGSTYYADSVKGRFTISRDNANHTVYLQMSCLKPEDTAVYYCAAVWYTSRQKYDYWGQGTQVTVTS	low polyreactivity
QVQLLESGGGLVQAGGSLRLICAASGLIFGPYTMGWYRQAPGKERELVAAITRSGGRTYYADSVKGRFTISRDNAKNTVYLQMNRLKPEDTAVYYCAAYGGQSWDYDYWGQGTQVTVSS	high polyreactivity
QVQLVESGGGLVHAGGSLRLSCAASGYTFGNNAMGWYIQAPGKERELVASIRTNGGTTYYADSVKGRFTISRDNAKNTVYLQMNSLKPEDTAVYYCNAYRGYEYDYWGQGTQVTVSS	low polyreactivity
QVQLVESGGGLVQAGGSLRLSCAASGITFYGNAMGWYRQAPGKERELVANTYYADSVKGRFTISRDNAKNTVYLQMNSLKPEDTAVYYCATRNARYRSQPPGYDYWGQGTQVTVSS	low polyreactivity
QVQLVESGGGLVQAGGSLRLSCAASGRITVFYTMGWYRQAPGKERELVATITRSGSRTYYADSVKGRFTISRDNAKNTVYLQMNSLKPEDTAVYYCARSQAVYDGWFAKFGYWGQGTQVTVSS	low polyreactivity
QVQLVESGGGLVQPGGSLRLSCAASGSIFPRNAMGWYRKAPGKERELVAGISYGGSTTYYADSVKGRFTISRDNAKNTVYLQMNSLKPEDTAVYYCAALQQYRRQTTYSSQLYYWGQGTQVTVSS	high polyreactivity
QVQLVESGGGRVQAGGSLRLSCAASGITFDANAMGWDRQAPGKERELVARISSGGSTNYADSVKGRFTISRDNAKNTVYLQMNSLKPEDTAVYYCAKSYQYGFDYWGQGTQVNVSS	low polyreactivity
QVHLVESGGCLLQAGGSLRLSCAASGSIFIINAMGWYRQAPGKERELVAAINNGVNTYYADSVKVRFTISRDNAKNTVYLQKNSLKPEDTAVYYCAADPYFYYYGYDYWGQGTQVTVSS	low polyreactivity
QVQLVESGGGLVQAGGSLRLSCAASGFTFSWYAMGWYRPAPGKERELVAAISWDGDSTYYADSVKGRFTISRDNAKNTVYLQMNSLIPEDTAVYYCAADFYYYWDGYDYWGQGTQVTVSS	high polyreactivity
QVQLVESGGGLVQAGGSLRLSCAASGSTFKPNAMGWYRQAPGKERELVAAITSGSTYYADSVKGRFTISRDNAKNTVYLQMNSLKPEDTAVYYCAVVTGSFRTRYTYYYWGQGTQVTVSS	high polyreactivity
QVQLVESGGGLVQAGGSLRLSCAASGSTFYRNAMGWYRPAPGKERELVAAISQRGGRTYYADSVKGRFTISRDNAKNTVYLQMNSLKPEDTAVYYCNKFRGINHLYDMNYWGQGTQVTVSS	high polyreactivity
QVQLVESVGGLVQAGGSLRLSCAASGRTFRTYTMGWYRQAPGKERELVAAIRSSGGRTYYADSVKGRFTISRDNAKNTVYLQMNSLKPEDTAVYYCAREYRGALHYYYCGQGTQVTVSS	high polyreactivity
QLQLVESGGGLVQAGGSLRLSCAASGYTFKTNDMGWYRQAPGKEREFVAAIDSGGNTYYADSVKGRFTISRDNAKNTVYLQMNSLKPEDTAVYYCAAYRDYQNDYWGQGTQVTVSS	low polyreactivity
QVQLVESGGGLVQAGGSLRLSCAASGSTFYNNAMGWYRQAPGKEREFVAAITLSGGRTYYADSVKGRFTISRDNAMNTVYLQMNSLKPEDTAVYYCAAKGTRRGKERNYWGQGTQVTVSS	high polyreactivity
QVQLVESGGGLVQAGGSLRLSCAGSGRIFDLYTMGWYRQAPGKERELVAAIRWSDGSTYYADSVKGRFTISRDNAKNTVYLQINSLKPEDTAVYYCAADTRTSYYNDDYDYWGQGTQVTVSS	low polyreactivity
QVHLVESGGGLVQAGGILRLSCAASGRTFRRYAMGWYRQAPGKERELVAVISGGGTYYADSVKGRFTISRDNAKNTVYLQMNSLKPEDTAVYYCNARSYQSARVRGGYWGQGTQVTVSS	high polyreactivity
QVQLVESGGGLVQAGGSLRLSCAASGSTQFGYAIGWYRQAPGKEREFVAAITSGGNTYYADSVKGRFTISLDNAKYTVYLQMNSLKPEDTAVFYCNKRYRSFAARLRGYDYWGQGTQVTVSS	high polyreactivity
QVQLVESGGGLVQAGGSLRLSCAASGFTFEYYAMGWYRQAPGKERELVATITSGGSTYYADSVKGRFTISRDNAKNTVYLQMNSLKPDDTAVYYCITSSPWIEDYWGQGTQVTVSS	low polyreactivity
QVQLVESRGALVQAGGSLRLSCAASGPIFDSYAMGWYRQATGKERELVATISRDSASTYYADSVKGRLTISRDNAKNTVYLQMNSLNPADTAVYYCSAGGSSSWAYNYWGHGTQVTVSS	low polyreactivity
QVQLVESGGGLVQAGGSLRLSCAASGSIFLRYAMGWYRQAPGKESELVARISWSGGSTYYADSVKGRFTISRDNAKNTVYLQMNSLKPEDTAVYYCAAGFRAYGELDYWGQGTQVTVSS	low polyreactivity
QVQLVESWGGLVQAGGSLRLSCAASGYTFSAYAMGWYRQAPGKERELVAAISWSGASTSYADSVKGRFTISRDNAKNTVYLQMNSLKPEDTAVYYCAARRLHYQFKYYSWGQGTQVTVSS	high polyreactivity
